The chains are these.
B1: IgG1-F1325 (antibody)
heavy: QVQLQESGPGLVKPSETLSLTCAVSGHSISHDHAWSWVRQPPGEGLEWIGFISYSGITNYNPSLQGRVTISRDNSKNTLYLQMNSLRAEDTAVYYCARSLARTTAMDYWGEGTLVTVSSASTKGPSVFPLAPSSKSTSGGTAALGCLVKDYFPEPVTVSWNSGALTSGVHTFPAVLQSSGLYSLSSVVTVPSSSLGTQTYICNVNHKPSNTKVDKKVEPKSCDKTHTCPPCPAPEAAGGPSVFLFPPKPKDTLYISRTPEVTCVVVDVSHEDPEVKFNWYVDGVEVHNAKTKPREEQYASTYRVVSVLTVLHQDWLNGKEYKCKVSNKALPAPIEKTISKAKGQPREPQVYTLPPSRDELTKNQVSLTCLVKGFYPSDIAVEWESNGQPENNYKTTPPVLDSDGSFFLYSKLTVDKSRWQQGNVFSCSVMHEALHYHVTQKSLSLSP
light: not shown
notes: EU numbering; copies: 2 + 2
B2: IgG1-F1334 (antibody)
heavy: QVQLQESGPGLVKPSETLSLTCAVSGHSISHDHAWSWVRQPPGEGLEWIGFISYSGITNYNPSLQGRVTISRDNSKNTLYLQMNSLRAEDTAVYYCARSLARTTAMDYWGEGTLVTVSSASTKGPSVFPLAPSSKSTSGGTAALGCLVKDYFPEPVTVSWNSGALTSGVHTFPAVLQSSGLYSLSSVVTVPSSSLGTQTYICNVNHKPSNTKVDKKVEPKSCDKTHTCPPCPAPELRRGPKVFLFPPKPKDTLYISRTPEVTCVVVDVSHEDPEVKFNWYVDGVEVHNAKTKPREEQYNSTYRVVSVLTVLHQDWLNGKEYKCKVSNKALPAPIEKTISKAKGQPREPQVYTLPPSRDELTKNQVSLTCLVKGFYPSDIAVEWESNGQPENNYKTTPPVLDSDGSFFLYSKLTVDKSRWQQGNVFSCSVMHEALHYHVTKKDLSLSP
light: not shown
notes: EU numbering; copies: 2 + 2
B3: IgG1-F1329 (antibody)
heavy: QVQLQESGPGLVKPSETLSLTCAVSGHSISHDHAWSWVRQPPGEGLEWIGFISYSGITNYNPSLQGRVTISRDNSKNTLYLQMNSLRAEDTAVYYCARSLARTTAMDYWGEGTLVTVSSASTKGPSVFPLAPSSKSTSGGTAALGCLVKDYFPEPVTVSWNSGALTSGVHTFPAVLQSSGLYSLSSVVTVPSSSLGTQTYICNVNHKPSNTKVDKKVEPKSCDKTHTCPPCPAPELRRGPKVFLFPPKPKDTLYITRTPEVTCVVVDVSHEDPEVKFNWYVDGVEVHNAKTKPREEQYNSTYRVVSVLTVLHQDWLNGKEYKCKVSNKALPAPIEKTISKAKGQPREPQVYTLPPSRDELTKNQVSLTCLVKGFYPSDIAVEWESNGQPENNYKTTPPVLDSDGSFFLYSKLTVDKSRWQQGNVFSCSVMHEALHYHVTRKELSLSP
light: not shown
notes: EU numbering; copies: 2 + 2
B4: IgG1-F1330 (antibody)
heavy: QVQLQESGPGLVKPSETLSLTCAVSGHSISHDHAWSWVRQPPGEGLEWIGFISYSGITNYNPSLQGRVTISRDNSKNTLYLQMNSLRAEDTAVYYCARSLARTTAMDYWGEGTLVTVSSASTKGPSVFPLAPSSKSTSGGTAALGCLVKDYFPEPVTVSWNSGALTSGVHTFPAVLQSSGLYSLSSVVTVPSSSLGTQTYICNVNHKPSNTKVDKKVEPKSCDKTHTCPPCPAPELRRGPKVFLFPPKPKDTLYISREPEVTCVVVDVSHEDPEVKFNWYVDGVEVHNAKTKPREEQYNSTYRVVSVLTVLHQDWLNGKEYKCKVSNKALPAPIEKTISKAKGQPREPQVYTLPPSRDELTKNQVSLTCLVKGFYPSDIAVEWESNGQPENNYKTTPPVLDSDGSFFLYSKLTVDKSRWQQGNVFSCSVMHEALHYHVTRKELSLSP
light: not shown
notes: EU numbering; copies: 2 + 2
B5: IgG1-F1337 (antibody)
heavy: QVQLQESGPGLVKPSETLSLTCAVSGHSISHDHAWSWVRQPPGEGLEWIGFISYSGITNYNPSLQGRVTISRDNSKNTLYLQMNSLRAEDTAVYYCARSLARTTAMDYWGEGTLVTVSSASTKGPSVFPLAPSSKSTSGGTAALGCLVKDYFPEPVTVSWNSGALTSGVHTFPAVLQSSGLYSLSSVVTVPSSSLGTQTYICNVNHKPSNTKVDKKVEPKSCDKTHTCPPCPAPELRGGPKVFLFPPKPKDTLYISREPEVTCVVVDVSHEDPEVKFNWYVDGVEVHNAKTKPREEQYNSTYRVVSVLTVLHQDWLNGKEYKCKVSNKALPAPIEKTISKAKGQPREPQVYTLPPSRDELTKNQVSLTCLVKGFYPSDIAVEWESNGQPENNYKTTPPVLDSDGSFFLYSKLTVDKSRWQQGNVFSCSVMHEALHYHVTKKELSLSP
light: not shown
notes: EU numbering; copies: 2 + 2
B6: IgG1-F1328 (antibody)
heavy: QVQLQESGPGLVKPSETLSLTCAVSGHSISHDHAWSWVRQPPGEGLEWIGFISYSGITNYNPSLQGRVTISRDNSKNTLYLQMNSLRAEDTAVYYCARSLARTTAMDYWGEGTLVTVSSASTKGPSVFPLAPSSKSTSGGTAALGCLVKDYFPEPVTVSWNSGALTSGVHTFPAVLQSSGLYSLSSVVTVPSSSLGTQTYICNVNHKPSNTKVDKKVEPKSCDKTHTCPPCPAPELRRGPKVFLFPPKPKDTLYISRTPEVTCVVVDVSHEDPEVKFNWYVDGVEVHNAKTKPREEQYNSTYRVVSVLTVLHQDWLNGKEYKCKVSNKALPAPIEKTISKAKGQPREPQVYTLPPSRDELTKNQVSLTCLVKGFYPSDIAVEWESNGQPENNYKTTPPVLDSDGSFFLYSKLTVDKSRWQQGNVFSCSVMHEALHYHVTRKELSLSP
light: not shown
notes: EU numbering; copies: 2 + 2
B7: IgG1-F1333 (antibody)
heavy: QVQLQESGPGLVKPSETLSLTCAVSGHSISHDHAWSWVRQPPGEGLEWIGFISYSGITNYNPSLQGRVTISRDNSKNTLYLQMNSLRAEDTAVYYCARSLARTTAMDYWGEGTLVTVSSASTKGPSVFPLAPSSKSTSGGTAALGCLVKDYFPEPVTVSWNSGALTSGVHTFPAVLQSSGLYSLSSVVTVPSSSLGTQTYICNVNHKPSNTKVDKKVEPKSCDKTHTCPPCPAPELRRGPKVFLFPPKPKDTLYISRTPEVTCVVVDVSHEDPEVKFNWYVDGVEVHNAKTKPREEQYNSTYRVVSVLTVLHQDWLNGKEYKCKVSNKALPAPIEKTISKAKGQPREPQVYTLPPSRDELTKNQVSLTCLVKGFYPSDIAVEWESNGQPENNYKTTPPVLDSDGSFFLYSKLTVDKSRWQQGNVFSCSVMHEALHYHVTQKSLSLSP
light: not shown
notes: EU numbering; copies: 2 + 2
B8: IgG1-F1336 (antibody)
heavy: QVQLQESGPGLVKPSETLSLTCAVSGHSISHDHAWSWVRQPPGEGLEWIGFISYSGITNYNPSLQGRVTISRDNSKNTLYLQMNSLRAEDTAVYYCARSLARTTAMDYWGEGTLVTVSSASTKGPSVFPLAPSSKSTSGGTAALGCLVKDYFPEPVTVSWNSGALTSGVHTFPAVLQSSGLYSLSSVVTVPSSSLGTQTYICNVNHKPSNTKVDKKVEPKSCDKTHTCPPCPAPELRRGPKVFLFPPKPKDTLYISREPEVTCVVVDVSHEDPEVKFNWYVDGVEVHNAKTKPREEQYNSTYRVVSVLTVLHQDWLNGKEYKCKVSNKALPAPIEKTISKAKGQPREPQVYTLPPSRDELTKNQVSLTCLVKGFYPSDIAVEWESNGQPENNYKTTPPVLDSDGSFFLYSKLTVDKSRWQQGNVFSCSVMHEALHYHVTKKDLSLSP
light: not shown
notes: EU numbering; copies: 2 + 2
B9: IgG1-F1331 (antibody)
heavy: QVQLQESGPGLVKPSETLSLTCAVSGHSISHDHAWSWVRQPPGEGLEWIGFISYSGITNYNPSLQGRVTISRDNSKNTLYLQMNSLRAEDTAVYYCARSLARTTAMDYWGEGTLVTVSSASTKGPSVFPLAPSSKSTSGGTAALGCLVKDYFPEPVTVSWNSGALTSGVHTFPAVLQSSGLYSLSSVVTVPSSSLGTQTYICNVNHKPSNTKVDKKVEPKSCDKTHTCPPCPAPELRRGPKVFLFPPKPKDTLYITREPEVTCVVVDVSHEDPEVKFNWYVDGVEVHNAKTKPREEQYNSTYRVVSVLTVLHQDWLNGKEYKCKVSNKALPAPIEKTISKAKGQPREPQVYTLPPSRDELTKNQVSLTCLVKGFYPSDIAVEWESNGQPENNYKTTPPVLDSDGSFFLYSKLTVDKSRWQQGNVFSCSVMHEALHYHVTRKELSLSP
light: not shown
notes: EU numbering; copies: 2 + 2
B10: IgG1-F1339 (antibody)
heavy: QVQLQESGPGLVKPSETLSLTCAVSGHSISHDHAWSWVRQPPGEGLEWIGFISYSGITNYNPSLQGRVTISRDNSKNTLYLQMNSLRAEDTAVYYCARSLARTTAMDYWGEGTLVTVSSASTKGPSVFPLAPSSKSTSGGTAALGCLVKDYFPEPVTVSWNSGALTSGVHTFPAVLQSSGLYSLSSVVTVPSSSLGTQTYICNVNHKPSNTKVDKKVEPKSCDKTHTCPPCPAPELRGGPKVFLFPPKPKDTLYITREPEVTCVVVDVSHEDPEVKFNWYVDGVEVHNAKTKPREEQYNSTYRVVSVLTVLHQDWLNGKEYKCKVSNKALPAPIEKTISKAKGQPREPQVYTLPPSRDELTKNQVSLTCLVKGFYPSDIAVEWESNGQPENNYKTTPPVLDSDGSFFLYSKLTVDKSRWQQGNVFSCSVMHEALDYHTTKKELSLSP
light: not shown
notes: EU numbering; copies: 2 + 2
B11: IgG1-F1335 (antibody)
heavy: QVQLQESGPGLVKPSETLSLTCAVSGHSISHDHAWSWVRQPPGEGLEWIGFISYSGITNYNPSLQGRVTISRDNSKNTLYLQMNSLRAEDTAVYYCARSLARTTAMDYWGEGTLVTVSSASTKGPSVFPLAPSSKSTSGGTAALGCLVKDYFPEPVTVSWNSGALTSGVHTFPAVLQSSGLYSLSSVVTVPSSSLGTQTYICNVNHKPSNTKVDKKVEPKSCDKTHTCPPCPAPELRRGPKVFLFPPKPKDTLYITRTPEVTCVVVDVSHEDPEVKFNWYVDGVEVHNAKTKPREEQYNSTYRVVSVLTVLHQDWLNGKEYKCKVSNKALPAPIEKTISKAKGQPREPQVYTLPPSRDELTKNQVSLTCLVKGFYPSDIAVEWESNGQPENNYKTTPPVLDSDGSFFLYSKLTVDKSRWQQGNVFSCSVMHEALHYHVTKKDLSLSP
light: not shown
notes: EU numbering; copies: 2 + 2
B12: IgG1-F1338 (antibody)
heavy: QVQLQESGPGLVKPSETLSLTCAVSGHSISHDHAWSWVRQPPGEGLEWIGFISYSGITNYNPSLQGRVTISRDNSKNTLYLQMNSLRAEDTAVYYCARSLARTTAMDYWGEGTLVTVSSASTKGPSVFPLAPSSKSTSGGTAALGCLVKDYFPEPVTVSWNSGALTSGVHTFPAVLQSSGLYSLSSVVTVPSSSLGTQTYICNVNHKPSNTKVDKKVEPKSCDKTHTCPPCPAPELRGGPKVFLFPPKPKDTLYISREPEVTCVVVDVSHEDPEVKFNWYVDGVEVHNAKTKPREEQYNSTYRVVSVLTVLHQDWLNGKEYKCKVSNKALPAPIEKTISKAKGQPREPQVYTLPPSRDELTKNQVSLTCLVKGFYPSDIAVEWESNGQPENNYKTTPPVLDSDGSFFLYSKLTVDKSRWQQGNVFSCSVMHEALDYHVTKKELSLSP
light: not shown
notes: EU numbering; copies: 2 + 2

T1 sequence (P55899 24-297 limits assumed, chain 1 of 2): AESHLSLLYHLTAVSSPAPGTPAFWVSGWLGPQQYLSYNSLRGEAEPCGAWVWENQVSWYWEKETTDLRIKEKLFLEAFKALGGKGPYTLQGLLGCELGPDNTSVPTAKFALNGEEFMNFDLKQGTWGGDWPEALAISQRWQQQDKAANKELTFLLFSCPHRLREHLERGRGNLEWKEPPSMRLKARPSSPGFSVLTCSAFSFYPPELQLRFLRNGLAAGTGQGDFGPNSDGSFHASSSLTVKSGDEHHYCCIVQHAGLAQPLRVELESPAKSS
T1 sequence (P61769 21-119 limits assumed, chain 2 of 2): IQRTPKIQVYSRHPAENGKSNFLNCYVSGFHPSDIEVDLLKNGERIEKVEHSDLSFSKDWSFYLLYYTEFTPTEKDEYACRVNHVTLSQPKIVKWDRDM

The experiment concerns the target T1, soluble human FcRn (human, UniProt P55899 24-297; P61769 21-119).
T1 construct: Heterodimer of FcRn alpha chain and beta2-microglobulin; also called hFcRn
The experiment in a line: SPR (Biacore T100), antibody captured by protein L, hFcRn as analyte, pH 7.0, 25 C.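 Note: KD calculated from fitted association and dissociation rate constants of the sensorgrams, protein L amine-coupled to the sensor chip, sodium phosphate running buffer with NaCl and Tween20.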 In general terms: Surface plasmon resonance follows binding to a sensor surface in real time, without labels.
Protocol: An appropriate amount of protein L (ACTIGEN) was immobilized onto Sensor chip CM4 (GE Healthcare) by the amino coupling method, and the chip was allowed to capture an antibody of interest. Then, diluted FcRn solutions and running buffer (as a reference solution) were injected to allow human FcRn to interact with the antibody captured on the sensor chip. The running buffer used comprised 50 mmol/l sodium phosphate, 150 mmol/l NaCl, and 0.05% (w/v) Tween20 (pH 7.0). FcRn was diluted using each buffer. The chip was regenerated using 10 mmol/l glycine-HCl (pH 1.5). Assays were carried out exclusively at 25 degrees C. The association rate constant ka (1/Ms) and dissociation rate constant kd (1/s), both of which are kinetic parameters, were calculated based on the sensorgrams obtained in the assays, and KD (M) of each antibody for human FcRn was determined from these values. Each parameter was calculated using Biacore T100 Evaluation Software (GE Healthcare).
As usually defined, the Kd is the equilibrium constant for the complex coming apart. Molecule B1 came in with a dissociation constant Kd of 210 nM. Regarding B2, the dissociation constant Kd came out at 100 nM. The same measure for B3: 130 nM. The same measure for B4: 100 nM; for B5: 74 nM; for B6: 150 nM. The same measure for B7: 120 nM; for B8: 72 nM. Take B9: the Kd was 77 nM. For B10 the value was 250 nM. For B11 the value was 88 nM.

Molecule B12 returned a Kd of 100 nM.

For the origin of these results see patent US20140363428A1 (Chugai, published 2014).
